Here are results for four molecules from US20130263324, “METHODS FOR PRODUCING A COMPLEX TRANSGENIC TRAIT LOCUS” (E.I. du Pont de Nemours and Company, published 2013).

The test system of series [1] is MHP77-3 meganuclease (engineered I-CreI). The series is described as follows: cell_activity. As to conditions: maize embryos.
Series [2] addresses T1, MHP55-2 meganuclease (engineered I-CreI).
T1 chain: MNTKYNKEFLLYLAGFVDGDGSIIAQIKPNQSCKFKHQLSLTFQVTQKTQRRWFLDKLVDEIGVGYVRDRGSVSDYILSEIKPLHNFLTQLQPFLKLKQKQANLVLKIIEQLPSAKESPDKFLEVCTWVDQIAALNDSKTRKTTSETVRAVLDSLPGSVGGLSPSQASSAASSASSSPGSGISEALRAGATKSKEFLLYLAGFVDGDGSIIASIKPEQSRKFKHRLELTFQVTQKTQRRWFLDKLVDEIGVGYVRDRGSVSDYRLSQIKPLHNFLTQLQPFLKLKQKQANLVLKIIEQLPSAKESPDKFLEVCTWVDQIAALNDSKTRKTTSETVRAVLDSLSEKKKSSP
In words: cell_activity; maize embryos. Conditions: tags: SV40 NLS. How it is done: (§1) Trait gene cassettes can be introduced at other target sites of the complex trait locus through homologous recombination mediated by engineered meganucleases. Engineered meganucleases were designed to direct double strand breaks a two other MHP target sites, MHP55 (SEQ ID NO: 72) and MHP77 (SEQ ID NO: 74) within the complex trait locus. Target site modification was determined using qPCR. The probe sequence for qPCR screening of the MHP55 target site was […] (SEQ ID NO: 115), the MHPTS55_Forward_MGBprimer sequence was […] (SEQ ID NO: 116), and MHP55_reverse_MGB primer was […] (SEQ ID NO: 117). The probe sequence for qPCR of MHP77 target site was […] (SEQ ID NO: 118), the MHPTS77_Forward_MGB primer sequence was […] (SEQ ID NO: 119), and MHP77_reverse_MGB primer was […] (SEQ ID NO: 120). The trait gene cassettes encoding MHP14, MHP55 and MHP77 were introduced into maize somatic embryos via transformation techniques using bombardment and following bombardment, embryos were incubated on 560P (maintenance medium) for 48 hours […].

In series [3] the target is T2, MHP14+ meganuclease (engineered I-CreI).
T2 chain: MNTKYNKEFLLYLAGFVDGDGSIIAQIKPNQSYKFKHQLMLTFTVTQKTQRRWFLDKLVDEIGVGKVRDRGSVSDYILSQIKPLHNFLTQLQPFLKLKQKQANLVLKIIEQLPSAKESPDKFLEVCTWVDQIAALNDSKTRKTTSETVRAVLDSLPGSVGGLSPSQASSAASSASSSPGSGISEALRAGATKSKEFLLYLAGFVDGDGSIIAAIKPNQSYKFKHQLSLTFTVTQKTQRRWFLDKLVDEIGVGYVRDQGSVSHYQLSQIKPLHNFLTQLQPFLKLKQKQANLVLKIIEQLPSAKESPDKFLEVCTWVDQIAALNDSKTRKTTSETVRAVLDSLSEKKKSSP
In words: cell_activity; maize embryos. Conditions: tags: SV40 NLS. How it is done:
as §1

Series [4] addresses T3, MHP77 meganuclease (engineered I-CreI).
T3 chain: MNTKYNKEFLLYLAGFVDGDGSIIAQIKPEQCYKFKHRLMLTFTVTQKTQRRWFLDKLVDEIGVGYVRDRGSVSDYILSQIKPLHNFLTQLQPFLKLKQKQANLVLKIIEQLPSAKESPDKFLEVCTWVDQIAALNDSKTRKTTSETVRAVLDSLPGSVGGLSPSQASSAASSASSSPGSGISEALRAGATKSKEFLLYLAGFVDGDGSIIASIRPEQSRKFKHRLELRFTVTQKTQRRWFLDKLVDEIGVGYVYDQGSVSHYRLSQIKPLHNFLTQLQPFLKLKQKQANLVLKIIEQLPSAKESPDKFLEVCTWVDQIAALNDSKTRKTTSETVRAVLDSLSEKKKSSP
The series is described as follows: cell_activity; maize embryos. Conditions: tags: SV40 NLS. How it is done:
as §1

As to “GGGCGGTATGTATGTCATACTA (double strand) [MHP77 target]”, the activity (% target site mutation) in series [1] stood at 11.

B1: MHP55 target (dsDNA)
DNA 1: CCAACCGTCGTGAGACCTGCCC
DNA 2: GGGCAGGTCTCACGACGGTTGG
Consider B1, for which, in series [2], the activity was 5 % target site mutation.

B2: MHP14 target (dsDNA)
DNA 1: CAAACAGATTCACGTCAGATTT
DNA 2: AAATCTGACGTGAATCTGTTTG
Take B2: the activity in series [3] was determined as 40 % target site mutation.

B3: MHP77 target (dsDNA)
DNA 1: GGGCGGTATGTATGTCATACTA
DNA 2: TAGTATGACATACATACCGCCC
In the case of B3, the activity in series [4] stood at 1 % target site mutation.
